In the supplement of paper PMC12636428:

Tested on: Saccharomyces cerevisiae
Assay: transcriptional activation domain activity (GFP:mCherry ratio, weighted mean of sorted bins, harmonized to initial dataset scale) (arbitrary fluorescence ratio units); higher = stronger transcriptional activation
Conditions: beta-estradiol 1 µM; induction time 4 h
Protocol: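 53-aa protein tiles (fungal proteins plus yeast TF control tiles) fused C-terminally to a DBD-estrogen-binding domain-mCherry synthetic TF, integrated in S. cerevisiae (URA3 locus) with a GFP reporter. Cells were induced with 1 uM beta-estradiol for 4 h at 30 C, FACS-sorted into 8 bins by GFP:mCherry ratio and barcodes sequenced. Activity is the read-weighted mean bin fluorescence (GFP:mCherry), averaged over barcodes (median 12); tiles under 50 reads were discarded. New active-learning values were harmonized by linear fit onto the scale of the initial (Hummel et al.) dataset. The assay saturates at low and high signal.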

Row | Sequence | transcriptional activation domain activity
1 | DSLSNSNDVLNNTPNSSTSMDWLDNVIYTNRFVSGDDGSNSKTKNLDSNMFSN | 66900
2 | DSNILAILPAVVYLQHSCYCLYFFYLYCFCLFLMSIDVAILYCLLYKIIPLFH | 43400
3 | DSNYLAFLKFDDLENEKFHSSASSISSPSYSSPSFSSYRNRKKSEFMDDESCT | 73200
4 | DSPVDRAMNTPLQQQEGLKAELPHDFLFQHGTDDTMYNLTDDLSSSLSSSINS | 68200
5 | DSRKEERRPSGHERKDRERGRDSRKDRDRKRKERLDDTASDDKKDRKRDRGEK | 24700
6 | DSRRKRNTSSEEDEPKKTDREERRREYRSRDHNVADEERSNKHRSSRRKHRSA | 7300
7 | DSSAETGPGEDPSLVLPGLHMTLMRRFALKSKDRDRVSVEILGLLIRVLGVLG | 59800
8 | DSSEEDSEDEKPKAVQVKAIAKASSSSDSDDSSSEDDAPSKSVVAAAKKVSPS | 22200
9 | DSSEVQRKKRRDSRKSKKESKSSSRRKDRSKDRSGRSKQRESKKKDRRRARSE | < 6570
10 | DSSFDLNMNLDLNLNLDSNFNIALNRSDSSGSTMNLDYKLPESANNYTYSSGS | 90700
11 | DSSSSNDSDSGADDGAARPVRRSRARRKHKHNHEHDGNGGEGDAKDKARKPSP | 28400
12 | DTCTKVHGRVFSREVHHIRFNRITTSTIVALRVASEVGAIWMLPMIYYTIVCW | 24200
13 | DTIYIFHALLVVFWVSLMQEPAFPYKLLIPILYITILLIPFTSQVFLPAVPVL | 49400
14 | DTKLIAISDANELKGFDSQCIEEWDPILFSAAEIWPTKGKPIALVEMDPIDFD | 145000
15 | DTMIRLFVGWLEEDPSSDRVLPRVHLGEIGIPVKLDLSSPSAVLVVSRLLCSL | 74100
16 | DTNLPTNPEAIQLHGDEDIKAWLVLAKNLAINPSRILVVLHRAVRGTQTPALG | 40400
17 | DTPFALHTLLIMHGHILLCENAKVSLDSSDTLNIFVPLVTVLINRLTNRKEYS | 32800
18 | DTSSFFLRFFHFPFLQLFLLQCLISPCLYVRTCPISLLLLWWCFYSVFFCVRG | 50300
19 | DTWGMEMEMEMEFLFLFLFVIFFLPCLSFFFSYFFSSNLLFFFFVFVMSFSFM | 73000
20 | DVDEAGEARGDSSSLCLSFLSLLLFFLFFLFFLLFRFLHLLHFFLFLLVFHFF | 47600

Row | Sequence | transcriptional activation domain activity
21 | DVDVDVGVDGRGRGFEAGDGREDGKGEEEGGRRLKRAGTDGEAVGGARAREVW | 32500
22 | DVDWWNVSSSETTFDAASLPLDVWDPLLPHDTGLSEIEVTTCWLDPWIIPFIT | 132000
23 | DVEMLKGLALRNPLEEGEDEAASLSQYAVNRQILLTYVILKLKLIRGKCILFV | 35000
24 | DVGNSVWHVDCCSPYVNGGSGWGFFNAILGWTNSATYGSVISYNLYWLFVIAV | 51100
25 | DVKISNDFFDNGDNLYGNDEEVLFYEDNYNPKMQWSLQDNSAAINNEDARAIF | 107000
26 | DVKKVYFASRFPGNWLRDYSQAMDIAGLSKLSSDTLVLVVAVLGFMTFGFATE | 38900
27 | DVNTGATSAPLSVGDVRHVAAPLEESGGCTLAMLVDDDGVMRIVVLRVTVDPV | 35300
28 | DVPEEKKAESEKVDSDQEKAESEAKKIDETPAKETADKPEEKSEDKAEDKAAE | 26100
29 | DVVDHSGDLFIRCNEIFGRQCIRNYIPSDPIWLIPLLGLLHRRLMYKVRLIYP | 71700
30 | DVYNEGHICNHSDDEGRYAYKYQPTMILYAIRALLRSLSVLIGAEEELGNAVA | 36400
31 | DWESIGAASLRNNSLAPNIDSVASSTNGVVSPKPTNPSFTNSQNGDIEPPLQH | 46900
32 | DWYFDLPLWVFVCFFLFVFLTLMTFRTPSLTRYYCTVVYYLLGKWVGNCIVYT | 18200
33 | DYCSFNSFPPSHFMSLYKNLGSFFLLSSFPPPPFFFVLLYLPASCLCFFCLFF | 54500
34 | DYLWADMDSFFPFVRLLPTPVQEIWDMTFDIALLPLMECPPPEEWTLFDTYAY | 52400
35 | DYSIAQFRFLLKLLLVHGRWNYMRACKYTLGTFWKEMLFYLTQALYQRWNGYT | 64700
36 | DYSIAQFRFLQRLLLVHGHWNYNRIAQYALATFWKEMLFYCIQLLYQRWNGYT | 37500
37 | DYTNWLGRNIVAWASKEPSTDDVKLCSGLLVKGLRLGHSDALVKLLVSMLFLT | 49000
38 | EAAAAAKRKRRKATSDSPEQARRGHVARKTAVACNFCRGRKLRCNGAKPSCSN | 22800
39 | EAAAGSVKNEAGESSASSAARGGRGGRRGGGGPGSRGGKVGRGRGGRAGASQE | 32500
40 | EAAARRERKQAAEKGENRERKRRTQGLQNNTARSQKDGDGKGEGGKDNKKDGK | 29200
